B1: Glucocorticoid receptor, residues 419 to 494; numbered along this chain, P04150 (parent)
chain: KLCLVCSDEASGCHYGVLTCGSCKVFFKRAVEGQHNYLCAGRNDCIIDKIRRKNCPACRYRKCLQAGMNLEARKTK

Variants of: B1
Assay: abundance fitness (aPCA) (normalised: wild type 0, dead -1); higher = more abundant; growth selection in yeast, the domain comes from the species named
Settings: Homo sapiens

Abundance fitness: each site, then its substitutions
C63: A -0.28; Y -0.85; E -0.871; T -0.909; H -0.813; D -0.915; M -0.075; G -0.06; L -0.741; F -0.322; V -0.863; K -0.779; I -0.546; R -0.772; W -0.889; N -0.667; S -0.42; Q -0.661
Y60: M -0.07; S -0.535; P -0.724; C -0.694; N -0.478; V -0.215; A -0.425; I -0.09; K -0.011; G -0.809; L 0.002; D -0.907; W -0.036; H -0.178; F 0.004
R61: V 0.064; S -0.004; G -0.063; Q 0.101; C -0.112; P -0.854; K -0.017; F -0.13; H -0.079; E 0.026; D 0.016; L 0; I -0.083; A 0.054; Y -0.089
T75: M -0.004; L 0.054; K 0.007; F 0.064; R -0.01; A 0.029; I -0.044; C -0.075; H -0.038; P -0.005; E 0.032; G 0.044; N 0.014; D 0.023; Q -0.099
E71: H -0.09; W -0.106; I -0.016; R -0.095; F -0.072; N -0.017; Q -0.051; V -0.01; Y -0.131; D 0.008; K -0.077; C -0.052; P -0.038; T -0.076; S -0.016; G -0.009; L -0.104; A -0.135
L70: M 0.052; D -0.033; I -0.018; E -0.021; Y 0.023; C -0.029; Q -0.02; H 0.01; V 0.021; N -0.011; T -0.03; A -0.058; K -0.029; G -0.068; S 0.052; R 0.023; W -0.033; F -0.08
R73: Q -0.061; Y -0.062; L -0.04; N -0.133; E -0.015; T 0.024; F -0.059; S 0.003; K 0.004; P -0.007; I -0.066; C -0.019; H -0.109; D -0.125; M 0.012; G -0.021
G67: N -0.226; I -0.415; F -0.447; D -0.347; A -0.542; W -0.656; P -0.904; S -0.516; T -0.51; V -0.583; C -0.534; Y -0.304; K -0.308; R -0.491; Q -0.371; E -0.228
L64: S -0.082; A -0.154; W -0.031; G -0.273; F -0.107; C 0.025; T -0.074; Y -0.161; P -0.682; E 0.016; M -0.023; D -0.296; K -0.01; N -0.083
K74: E 0.091; C -0.032; I 0.027; Q 0.063; T -0.034; P -0.049; R 0.054; A -0.033; N -0.01; M 0.009; L 0.077; F 0.047; V -0.008; H 0.039; G -0.006; S -0.047; W -0.017; D 0.19; Y 0.043
Q65: K -0.052; T -0.086; W -0.063; N -0.071; M -0.057; Y -0.09; A -0.019; G -0.06; C -0.111; L -0.035; H 0.09; P -0.567; R -0.053; E -0.06; V -0.029; F -0.045; D 0.045; S -0.009
A66: Q -0.037; M -0.031; Y -0.014; G -0.109; S -0.058; P -0.859; C -0.037; R -0.179; E -0.036; D -0.33; K 0.024; V 0.021; W -0.227; H -0.052; N -0.02; I -0.242; L -0.024; T 0.029
K62: P -0.867; C 0.007; D -0.336; M -0.042; E -0.2; S -0.166; G -0.105; V -0.119; N -0.031; T -0.047; R -0.05; Q -0.066; W -0.505; Y -0.187; A -0.015; L -0.048; F -0.158
C58: W -1.08; V -0.903; E -0.633; R -1.04; Q -0.768; A -0.935; I -0.81; F -1; M -0.896; P -0.842; H -0.701; G -0.81; Y -0.405; S -0.697; D -0.872; L -0.789; K -1.06
P56: N 0.013; L -0.047; S -0.035; Q -0.001; I -0.19; K -0.108; M -0.053; R -0.076; F -0.003; V -0.064; T -0.06; H -0.111; G -0.085
A57: E -0.146; M -0.587; D -0.182; F -0.457; N -0.266; L -0.582; T -0.571; Q -0.195; K -0.06; P -0.247; S -0.02; G -0.071; C -0.039; W -0.669; I -0.614; V -0.656
N69: Q -0.071; T 0.011; I -0.089; S 0.039; R 0.01; K 0.001; F -0.023; W -0.061; L -0.11; E -0.02; Y -0.105; G -0.047; A 0.006; H 0.028; P -0.252; V -0.049; D -0.033; M -0.022
M68: K -0.632; W -0.846; N -0.62; G -0.574; E -0.529; S -0.771; T -0.595; V -0.472; A -0.377; I -0.422; D -0.768; P -0.928; R -0.719; Y -0.215; F -0.076; Q -0.999; C -0.12; H -0.551; L -0.133
A72: Q 0.008; R -0.054; D -0.017; M 0.005; Y 0.011; I 0.002; N -0.037; L -0.015; F -0.285; P -0.077; V -0.043; W -0.023; E 0.047; G -0.023; S -0.067; K 0.049; H -0.044
R59: N -0.817; Q -0.259; E -0.583; M -0.171; Y -0.087; W 0.017; I -0.694; G -0.825; S -0.81; D -0.609; V -0.783; P -0.737; A -0.702; H 0.014; K -0.52; F -0.513; L -0.017

Source: the Human Domainome abundance scans (Beltran et al. 2025)
